According to PMC4608764, “The Q Motif Is Involved in DNA Binding but Not ATP Binding in ChlR1 Helicase” (PLoS ONE, 2015):
Substitutions are numbered along the chain they refer to.

Legend:
[1] = target: T1, ChlR1 (DDX11), (Homo sapiens, UniProt Q96FC9, Q23A); experiment: nitrocellulose filter-binding (dot blot) assay
T1 sequence (Q96FC9 1-906 isoform Q96FC9-2 Q23A): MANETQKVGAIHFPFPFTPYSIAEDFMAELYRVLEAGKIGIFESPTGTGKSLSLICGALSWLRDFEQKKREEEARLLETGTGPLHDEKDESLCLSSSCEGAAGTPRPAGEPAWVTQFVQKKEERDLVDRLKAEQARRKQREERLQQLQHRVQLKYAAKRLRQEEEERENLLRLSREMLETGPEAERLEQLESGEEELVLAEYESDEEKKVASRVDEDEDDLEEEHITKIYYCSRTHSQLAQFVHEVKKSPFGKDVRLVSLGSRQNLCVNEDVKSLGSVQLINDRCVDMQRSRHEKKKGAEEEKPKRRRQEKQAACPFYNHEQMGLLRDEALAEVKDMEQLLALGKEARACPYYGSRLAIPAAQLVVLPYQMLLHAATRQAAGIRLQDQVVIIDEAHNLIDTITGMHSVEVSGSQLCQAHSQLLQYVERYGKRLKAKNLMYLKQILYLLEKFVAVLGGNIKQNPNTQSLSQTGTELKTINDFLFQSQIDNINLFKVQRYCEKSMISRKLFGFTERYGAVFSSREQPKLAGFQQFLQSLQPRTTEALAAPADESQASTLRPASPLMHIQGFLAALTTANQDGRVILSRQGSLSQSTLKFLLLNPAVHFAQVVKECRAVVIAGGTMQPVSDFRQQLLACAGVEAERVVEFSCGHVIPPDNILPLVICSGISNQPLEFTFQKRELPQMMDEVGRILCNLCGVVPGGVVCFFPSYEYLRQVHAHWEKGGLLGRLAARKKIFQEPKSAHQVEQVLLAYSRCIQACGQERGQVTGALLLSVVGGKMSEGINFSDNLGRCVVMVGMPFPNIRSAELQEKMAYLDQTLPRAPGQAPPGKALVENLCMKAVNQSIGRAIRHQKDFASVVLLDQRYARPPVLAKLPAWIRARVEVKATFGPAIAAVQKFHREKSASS

[2] = target: T2, ChlR1 (DDX11), ChlR1-WT (Homo sapiens, UniProt Q96FC9); experiment: nitrocellulose filter-binding (dot blot) assay
T2 sequence (Q96FC9 1-906 isoform Q96FC9-2): T1 sequence (Q96FC9 1-906 isoform Q96FC9-2 Q23A) with A23Q

[3] = target: T3, ChlR1-WT (Homo sapiens, UniProt Q96FC9-2 1-906); experiment: fluorescence anisotropy; apparent Kd, no ATP, 21 C, 10 nM DNA; EMSA: 40 mM Tris-HCl pH 7.4, 25 mM KCl, 5 mM MgCl2, 2 mM DTT, 2% glycerol, 100 ng/uL BSA, no ATP, 0.5 nM DNA, room temp 30 min; anisotropy: same buffer, 21 C; filter binding: 25 mM Tris-HCl pH 7.5, 25 mM KOAc, 1 mM Mg(OAc)2, 1 mM DTT, 100 ug/mL BSA, 37 C 30 min; conditions: protein: recombinant; tags: FLAG; fork, 19 bp duplex; 5' ssDNA tail 26 nt (DC26) and 3' ssDNA tail 25 nt (TSTEM25)
T3 sequence: T1 sequence (Q96FC9 1-906 isoform Q96FC9-2 Q23A) with A23Q

[4] = target: T4, ChlR1-Q23A (Homo sapiens, UniProt Q96FC9-2 1-906, Q23A); experiment: as above; conditions: protein: recombinant; tags: FLAG; fork, 19 bp duplex; 5' ssDNA tail 26 nt (DC26) and 3' ssDNA tail 25 nt (TSTEM25)
T4 sequence: T1 sequence (Q96FC9 1-906 isoform Q96FC9-2 Q23A)

[5] = target: T3, ChlR1-WT; experiment: filter binding; 37 C, 1 mM Mg(OAc)2; EMSA: 40 mM Tris-HCl pH 7.4, 25 mM KCl, 5 mM MgCl2, 2 mM DTT, 2% glycerol, 100 ng/uL BSA, no ATP, 0.5 nM DNA, room temp 30 min; anisotropy: same buffer, 21 C; filter binding: 25 mM Tris-HCl pH 7.5, 25 mM KOAc, 1 mM Mg(OAc)2, 1 mM DTT, 100 ug/mL BSA, 37 C 30 min; conditions: protein: recombinant; tags: FLAG; label: 32P (5' end); fork, 19 bp duplex; 5' ssDNA tail 26 nt (DC26) and 3' ssDNA tail 25 nt (TSTEM25)
[6] = target: T4, ChlR1-Q23A; experiment: as above; conditions: protein: recombinant; tags: FLAG; label: 32P (5' end); fork, 19 bp duplex; 5' ssDNA tail 26 nt (DC26) and 3' ssDNA tail 25 nt (TSTEM25)
[7] = substrate: Nc1ncnc2c1ncn2[C@@H]1O[C@H](COP(=O)(O)OP(=O)(O)OP(=O)(O)O)[C@@H](O)[C@H]1O; experiment: [γ-32P]ATP hydrolysis, thin-layer chromatography; type: biochemical, Homo sapiens; conditions: 2.1 nM M13mp18 ssDNA, ATP 31-4000 μM, 1 mM Mg acetate, pH 7.5, 37 °C, 30 min, kcat measured separately at 8.5 mM ATP

Work on `Nc1ncnc2c1ncn2[C@@H]1O[C@H](COP(=O)(O)OP(=O)(O)OP(=O)(O)O)[C@@H](O)[C@H]1O` [ATP] yielded a Kd [1] of 43.8 nM and a Kd [2] of 51.8 nM.

B1: Forked duplex (DC26/TSTEM25), fluorescein (dsDNA)
DNA 1: TTTTTTTTTTTTTTTTTTTTTTCCCAGTAAAACGACGGCCAGTGC
DNA 2: GCACTGGCCGTCGTTTTACGGTCGTGACTGGGAAAACCCTGGCG
Work on B1 yielded a Kd [3] of 520 nM and a Kd [4] of 1000 nM.

B2: Forked duplex (DC26/TSTEM25) (dsDNA)
DNA 1: B1 DNA 1
DNA 2: B1 DNA 2
B2 gave a Kd [5] of 106 nM and a Kd [6] of 398 nM.

B3: ChlR1 (DDX11), ChlR1-WT (Homo sapiens) (protein)
chain: T1 sequence (Q96FC9 1-906 isoform Q96FC9-2 Q23A) with A23Q
B3 gave a Km [7] of 415.7 ± 58.4 µM and a kcat [7] of 1073.3 ± 46.7 s⁻¹.
